B1: Bacillus subtilis Zur H90A (natural protein)
chain: not shown
B2: Bacillus subtilis Zur H89A (natural protein)
chain: not shown
B3: Bacillus subtilis Zur C84S (natural protein)
chain: not shown

Molecular target: the molecule itself
Assay: SEC

Protein	binding result	stoichiometry N
B1	binds	
B2	binds	
B3		2

Reference: paper PMC3241647 (Nucleic Acids Research, 2011)
